Measurements from paper PMC4207998 (The Journal of Biological Chemistry, 2014).

Target: T1, monomeric α-toxin (AT) of Staphylococcus aureus, as crystallised (Staphylococcus aureus subsp. aureus …)
T1 chain: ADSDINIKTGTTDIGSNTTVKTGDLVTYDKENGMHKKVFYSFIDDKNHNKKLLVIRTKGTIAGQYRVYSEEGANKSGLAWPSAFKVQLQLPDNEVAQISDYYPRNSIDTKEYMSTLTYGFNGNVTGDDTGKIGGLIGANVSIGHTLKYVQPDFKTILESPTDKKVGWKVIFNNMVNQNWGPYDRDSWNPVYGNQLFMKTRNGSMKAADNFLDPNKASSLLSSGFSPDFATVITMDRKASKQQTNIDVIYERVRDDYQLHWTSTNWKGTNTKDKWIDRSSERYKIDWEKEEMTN
Assay: crystal structure
Settings: both partners purified

B1: MEDI4893 Fab (Fab, V domains shown)
VH: EVQLVESGGGLVQPGGSLRLSCAASGFTFSSHDMHWVRQATGKGLEWVSGIGTAGDTYYPDSVKGRFTISRENAKNSLYLQMNSLRAGDTAVYYCARDRYSPTGHYYGMDVWGQGTTVTVSS
VL: DIQMTQSPSTLSASVGDRVTITCRASQSISSWLAWYQQKPGKAPKLLIYKASSLESGVPSRFSGSGSGTEFTLTISSLQPDDFATYYCKQYADYWTFGQGTKVEIK
binding result: binds
